# Data published in article PMC3842988 (Molecular Biology of the Cell, 2013).
# T1: FLAG-Htt103Q-GFP (Huntingtin with 103Q glutamine stretch, lacking the proline-rich region) (UniProt P42858 1-17)
# T1 chain: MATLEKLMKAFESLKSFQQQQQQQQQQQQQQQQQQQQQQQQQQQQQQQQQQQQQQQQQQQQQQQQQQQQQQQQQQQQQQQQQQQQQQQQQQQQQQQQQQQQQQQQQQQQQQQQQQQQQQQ
# B1: Ssa1 (Hsp70) (natural protein)
# chain: not shown
# B2: Sis1 (type II Hsp40) (natural protein)
# chain: MVKETKLYDLLGVSPSANEQELKKGYRKAALKYHPDKPTGDTEKFKEISEAFEILNDPQKREIYDQYGLEAARSGGPSFGPGGPGGAGGAGGFPGGAGGFSGGHAFSNEDAFNIFSQFFGGSSPFGGADDSGFSFSSYPSGGGAGMGGMPGGMGGMHGGMGGMPGGFRSASSSPTYPEEETVQVNLPVSLEDLFVGKKKSFKIGRKGPHGASEKTQIDIQLKPGWKAGTKITYKNQGDYNPQTGRRKTLQFVIQEKSHPNFKRDGDDLIYTLPLSFKESLLGFSKTIQTIDGRTLPLSRVQPVQPSQTSTYPGQGMPTPKNPSQRGNLIVKYKVDYPISLNDAQKRAIDENF
# Biological target: T1, FLAG-Htt103Q-GFP (Huntingtin with 103Q …)
# Experiment: co-IP
row,Binder,"fold change of the co-precipitate, Sti1 elevated against endogenous Sti1"
1,B1,> 2 fold
2,B2,~4 fold
